Columns and labels:
Details in all cases: both partners purified
[1] = target: T1, biotinylated α-cobratoxin from Naja kaouthia (Naja kaouthia, UniProt P01391, biotin (1:1.25 toxin: biotin reagent molar ratio; site not stated)); test: BLI; […]; dissociation in HEPES-MES pH 5.5; 1:1 binding model, global fit; […]
T1 construct: source: bought: Latoxan (purified, from N. kaouthia), then biotinylated

[2] = target: T2, biotinylated α-bungarotoxin from Bungarus multicinctus (Bungarus multicinctus, UniProt P60615); test: BLI
T2 construct: source: bought: Latoxan (purified, from B. multicinctus), then biotinylated
T2 sequence (P60615 22-95): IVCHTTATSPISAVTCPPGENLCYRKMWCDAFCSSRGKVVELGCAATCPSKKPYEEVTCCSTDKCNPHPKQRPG

[3] = target: T1, biotinylated α-cobratoxin from Naja …; test: BLI; […]) in HEPES-MES buffer pH 7.4; dissociation in HEPES-MES pH 7.4; 1:1 binding model, global fit; […]

T1 sequence (P01391 whole entry): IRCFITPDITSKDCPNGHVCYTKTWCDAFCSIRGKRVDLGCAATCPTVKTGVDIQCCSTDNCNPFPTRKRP

B1: Fab TPL0197_01_C08 (Fab, V domains shown)
VH: EVQLVQSGAEVKKPGASVKVSCKASGYTFTSYGISWVRQAPGQGLEWMGWISAYNGNTNYAQKLQGRVTMTTDTSTSTAYMELRSLRSDDTAVYYCAREEYCSSTSCYVGNYYGMDVWGQGTLVTVSS
VL: DIQMTQSPSSLSASVGDRVTITCQASQDISNYLNWYQQKPGKAPKLLIYAASSLESGVPSRFSGSGSGTEFTLTITNLQVDDFATYYCQRYDSNFAFGQGTKVEIK
notes: also called Fab C08; source: ExpiCHO cells, purified (Ni-NTA / HisTrap Excel, desalting)
koff [1]: 0.00535 s⁻¹
binding result [2]: no binding (tested: 300 nM)
Kd [3]: 44.8 nM
koff [3]: 0.00076 s⁻¹

From PMC10659949 (Protein Science : A Publication of the Protein Society, 2023)
